This note sets out measurements from US20090062190A1 (published 2009).

The assay deals with LITAF (LPS-induced TNF-α factor), full length. Nature of the assay: cell-based or functional assay.
LITAF (LPS-induced TNF-α factor), full length, sequence (chain, as listed by the source limits assumed): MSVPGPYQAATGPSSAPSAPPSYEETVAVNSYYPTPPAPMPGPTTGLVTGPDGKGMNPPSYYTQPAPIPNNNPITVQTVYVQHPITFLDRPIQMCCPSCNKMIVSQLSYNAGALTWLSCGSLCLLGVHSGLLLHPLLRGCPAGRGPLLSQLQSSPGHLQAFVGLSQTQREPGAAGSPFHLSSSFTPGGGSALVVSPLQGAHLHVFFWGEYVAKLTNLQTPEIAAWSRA

B1: STAT6(B) (Signal transducer and activator of transcription), full length, aa 1-404 (other)
chain: MARRNPSPPLQRLRDWGHHHCPCHPGPGWLSTDGEHPAILCQRPVHSLTGGPNPGSCSAQKSLSQEAQGGGFPEPLQAWAGTGCSDSFLSPTSSLLPAALLSLPVCHPDVTPYFIAVLLLLPHDPCPPFPPPFLPNPRALHGCLFLLTTAEQMGKDGRGYVPATIKMTVERGVWWYGQWVGQGLVVLICRKEGWHQPLVSHMYLLPSSRDQPLPTPELQMPTMVPSYDLGMAPDSSMSMQLGPDMVPQVYPPHSHSIPPYQGLSPEESVNVLSAFQEPHLQMPPSLGQMSLSFDQPHPQGLLPCQPQEHAVSSPDPLLCSDVTTVEDSCLSQPVTAFPQGTWIGEDIFPPLLPPTEQDLTKLLLEGQGESGGGSLGAQPLLQPSHYGQSGISMSHMDLRANPSW
For the molecule B1, the “TNF-promoter activity (luciferase), U2OS cells, co-transfection versus LITAF alone” value is 1.5 fold; the “TNF-α in supernatants of transfected THP-1 cells (ELISA), versus LITAF alone” value stood at 1.8 fold; the “cytokine antibody array, 'W-10' (probably IL-10), THP-1 cells co-transfected with LITAF and STAT6(B)” value was determined as 10 fold; the “cytokine antibody array, GRO, THP-1 cells co-transfected with LITAF and STAT6(B)” value came out at 2.1 fold. In addition, the “cytokine antibody array, IFN-γ, THP-1 cells co-transfected with LITAF and STAT6(B)” value came out at 6.2 fold; the “cytokine antibody array, IL-1α, THP-1 cells co-transfected with LITAF and STAT6(B)” value was found to be 3 fold; the “cytokine antibody array, MCP-2, THP-1 cells co-transfected with LITAF and STAT6(B)” value is 8.5 fold; the “cytokine antibody array, RANTES, THP-1 cells co-transfected with LITAF and STAT6(B)” value was found to be 3.2 fold. In addition, the “cytokine antibody array, TNF-α, THP-1 cells co-transfected with LITAF and STAT6(B)” value came to 4 fold.
